# Numbering of substitutions follows the chain as printed.
# T1: Human KLRF1 (human, UniProt Q9NZS2 1-231)
# T1 construct: also called hKLRF1
# T1 sequence: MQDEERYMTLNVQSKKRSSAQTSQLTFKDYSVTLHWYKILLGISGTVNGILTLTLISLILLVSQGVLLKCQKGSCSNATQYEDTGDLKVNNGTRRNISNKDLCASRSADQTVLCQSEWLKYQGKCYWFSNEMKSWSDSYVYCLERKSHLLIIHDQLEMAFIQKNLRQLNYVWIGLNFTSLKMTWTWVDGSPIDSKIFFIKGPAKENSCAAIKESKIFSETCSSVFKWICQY
# T2: Human CD94 (human, UniProt Q13241 1-179)
# T2 construct: also called hCD94
# T2 sequence: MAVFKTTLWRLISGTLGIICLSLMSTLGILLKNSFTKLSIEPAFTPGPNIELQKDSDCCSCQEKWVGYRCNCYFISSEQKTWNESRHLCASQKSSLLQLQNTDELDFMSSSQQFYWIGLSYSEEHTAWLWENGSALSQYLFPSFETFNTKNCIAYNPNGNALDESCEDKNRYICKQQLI
# T3: Human KLRF2 (human, UniProt D3W0D1 1-207)
# T3 construct: also called hKLRF2
# T3 sequence: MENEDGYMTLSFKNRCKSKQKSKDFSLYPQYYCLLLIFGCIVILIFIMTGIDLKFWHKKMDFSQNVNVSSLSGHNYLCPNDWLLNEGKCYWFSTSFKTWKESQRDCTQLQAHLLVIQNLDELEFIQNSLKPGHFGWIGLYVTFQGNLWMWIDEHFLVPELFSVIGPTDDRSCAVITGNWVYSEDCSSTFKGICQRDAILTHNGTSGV
# T4: Human Clec12B (human, UniProt Q2HXU8 1-276)
# T4 construct: also called hClec12B
# T4 sequence: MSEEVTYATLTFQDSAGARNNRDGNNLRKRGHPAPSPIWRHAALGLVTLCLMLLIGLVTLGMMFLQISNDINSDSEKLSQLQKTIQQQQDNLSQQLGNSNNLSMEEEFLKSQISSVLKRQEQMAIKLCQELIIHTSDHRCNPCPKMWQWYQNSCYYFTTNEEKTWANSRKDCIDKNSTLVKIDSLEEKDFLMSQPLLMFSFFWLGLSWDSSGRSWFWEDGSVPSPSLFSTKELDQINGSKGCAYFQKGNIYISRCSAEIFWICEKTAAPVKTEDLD
# T5: Human Clec7A (human, UniProt Q9BXN2 1-247)
# T5 construct: also called hClec7A
# T5 sequence: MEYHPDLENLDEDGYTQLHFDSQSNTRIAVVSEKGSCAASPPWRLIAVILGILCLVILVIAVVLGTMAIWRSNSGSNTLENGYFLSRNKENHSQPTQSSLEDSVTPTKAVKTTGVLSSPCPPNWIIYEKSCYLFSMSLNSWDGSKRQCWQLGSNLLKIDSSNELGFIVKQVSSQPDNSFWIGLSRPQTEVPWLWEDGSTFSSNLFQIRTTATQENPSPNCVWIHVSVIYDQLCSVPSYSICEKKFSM
# T6: Human KLRG1 (human, UniProt Q96E93 1-195)
# T6 construct: also called hKLRG1
# T6 sequence: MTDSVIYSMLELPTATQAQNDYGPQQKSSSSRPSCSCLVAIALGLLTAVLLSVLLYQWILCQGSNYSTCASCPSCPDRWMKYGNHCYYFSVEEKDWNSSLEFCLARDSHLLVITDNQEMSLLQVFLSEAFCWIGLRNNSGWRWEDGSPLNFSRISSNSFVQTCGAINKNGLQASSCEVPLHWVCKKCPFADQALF
# T7: Human Clec5A (human, UniProt Q9NY25 1-188)
# T7 construct: also called hClec5A
# T7 sequence: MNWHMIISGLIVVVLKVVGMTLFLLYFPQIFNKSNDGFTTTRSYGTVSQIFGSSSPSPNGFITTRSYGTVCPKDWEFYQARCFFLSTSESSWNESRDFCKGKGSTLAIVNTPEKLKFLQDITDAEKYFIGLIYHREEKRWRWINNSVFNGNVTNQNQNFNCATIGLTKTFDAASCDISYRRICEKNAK
# T8: Human CD209 (human, UniProt Q9NNX6 1-404)
# T8 construct: also called hCD209
# T8 sequence: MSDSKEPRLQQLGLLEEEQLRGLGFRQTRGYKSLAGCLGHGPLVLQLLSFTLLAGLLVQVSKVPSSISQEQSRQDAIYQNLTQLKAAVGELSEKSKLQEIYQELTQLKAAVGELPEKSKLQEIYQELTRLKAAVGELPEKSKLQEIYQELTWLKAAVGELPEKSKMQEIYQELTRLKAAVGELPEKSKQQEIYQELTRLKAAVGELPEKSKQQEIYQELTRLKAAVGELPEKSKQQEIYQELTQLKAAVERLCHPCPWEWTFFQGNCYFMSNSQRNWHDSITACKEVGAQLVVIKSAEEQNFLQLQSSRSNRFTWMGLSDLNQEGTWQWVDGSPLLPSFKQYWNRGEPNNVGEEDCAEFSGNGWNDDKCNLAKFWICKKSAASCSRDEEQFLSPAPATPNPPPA
# T9: Human Clec4E (human, UniProt Q9ULY5 1-219)
# T9 construct: also called hClec4E
# T9 sequence: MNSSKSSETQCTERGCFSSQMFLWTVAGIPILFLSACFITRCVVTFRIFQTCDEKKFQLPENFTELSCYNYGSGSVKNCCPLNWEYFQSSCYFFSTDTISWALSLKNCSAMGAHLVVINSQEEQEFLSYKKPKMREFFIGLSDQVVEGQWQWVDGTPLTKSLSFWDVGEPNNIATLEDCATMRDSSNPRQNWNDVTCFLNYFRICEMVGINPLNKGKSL
# T10: Human Clec10A (human, UniProt Q8IUN9 1-316)
# T10 construct: also called hClec10A
# T10 sequence: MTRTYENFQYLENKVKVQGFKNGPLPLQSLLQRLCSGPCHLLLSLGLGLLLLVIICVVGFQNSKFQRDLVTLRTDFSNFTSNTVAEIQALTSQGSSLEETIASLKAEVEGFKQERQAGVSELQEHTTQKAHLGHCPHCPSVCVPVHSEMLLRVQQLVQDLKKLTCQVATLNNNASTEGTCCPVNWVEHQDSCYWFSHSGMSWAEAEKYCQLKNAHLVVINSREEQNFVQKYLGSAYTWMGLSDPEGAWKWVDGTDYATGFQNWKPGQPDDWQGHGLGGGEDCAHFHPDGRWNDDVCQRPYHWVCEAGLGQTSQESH
# B1: anti-CD161 KW17 (antibody, V domains shown)
# VH: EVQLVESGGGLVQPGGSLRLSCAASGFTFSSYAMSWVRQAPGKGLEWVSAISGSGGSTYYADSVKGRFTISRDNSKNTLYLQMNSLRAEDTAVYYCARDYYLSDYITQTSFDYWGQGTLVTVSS
# VL: QSVLTQPPSVSGAPGQRVTISCTGSSSNIGAGYDVHWYQQLPGTAPKLLIYGNSNRPSGVPDRFSGSKSGTSASLAITGLQAEDEADYYCQSYDSSHTVFGGGTQLTVL
# notes: Human, lambda light chain; scFv-Fc or full IgG not clear; also called KW17-Fc
# B2: KW17.3.4 (antibody, V domains shown)
# VH: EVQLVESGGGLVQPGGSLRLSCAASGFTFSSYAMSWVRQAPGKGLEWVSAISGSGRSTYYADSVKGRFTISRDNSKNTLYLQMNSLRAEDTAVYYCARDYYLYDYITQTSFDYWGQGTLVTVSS
# VL: B1 VL with K68Q, D94N, S96G
# B3: KW9.3.3 (antibody, V domains shown)
# VH: EVQLVESGGGLVQPGGSLRLSCAASGFTFSSYAMSWVRQAPGKGLEWVSAISGSGGRTYYADSVKGRFTISRDNSKNTLYLQMNSLRAEDTAMYYCARGPGYMYLYGDSFFEYWGQGTLVTVSS
# VL: DIQMAQSPSSLSASVGDRVTITCRASQGISSYLNWYQQKPGKAPKLLIYAASSLQSGVPSRFSGSGYGTDFTLTISSLQPEDFATYYCQQSYSTPLTFGQGTKVEIK
# B4: KM12.4.7 (antibody, V domains shown)
# VH: EVQLVESGGGLVQPGGSLRLPCAASGFTFSSYAMSWIRQAPGKGLEWVSAISGSGGSIYYADSVKGRFTISRDNSKNTLYLQMDSLRAEDTAVYYCARGYSDSYFYGPYYTFDYWGQGTLVTVSS
# VL: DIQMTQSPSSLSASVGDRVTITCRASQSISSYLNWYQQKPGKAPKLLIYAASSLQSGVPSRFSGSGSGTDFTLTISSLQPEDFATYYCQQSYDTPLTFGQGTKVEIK
# Molecular target: T1, Human KLRF1
# Assay: flow, Jurkat
row,binding result,Binder
1,no binding (tested: 100 nM),B1
2,no binding (tested: 100 nM),B2
3,no binding (tested: 100 nM),B3
4,no binding (tested: 100 nM),B4

# Molecular target: T2, Human CD94
# Assay: flow, Jurkat
row,binding result,Binder
1,no binding (tested: 100 nM),B1
2,no binding (tested: 100 nM),B2
3,no binding (tested: 100 nM),B3
4,no binding (tested: 100 nM),B4

# Molecular target: T3, Human KLRF2
# Assay: flow, Jurkat
row,binding result,Binder
1,no binding (tested: 100 nM),B1
2,no binding (tested: 100 nM),B2
3,no binding (tested: 100 nM),B3
4,no binding (tested: 100 nM),B4

# Molecular target: T4, Human Clec12B
# Assay: flow, Jurkat
row,binding result,Binder
1,no binding (tested: 100 nM),B1
2,no binding (tested: 100 nM),B2
3,no binding (tested: 100 nM),B3
4,no binding (tested: 100 nM),B4

# Molecular target: T5, Human Clec7A
# Assay: flow, Jurkat
row,binding result,Binder
1,no binding (tested: 100 nM),B1
2,no binding (tested: 100 nM),B2
3,no binding (tested: 100 nM),B3
4,no binding (tested: 100 nM),B4

# Molecular target: T6, Human KLRG1
# Assay: flow, Jurkat
row,binding result,Binder
1,no binding (tested: 100 nM),B1
2,no binding (tested: 100 nM),B2
3,no binding (tested: 100 nM),B3
4,no binding (tested: 100 nM),B4

# Molecular target: T11, Human OLR1 (human, UniProt P78380 1-273)
# T11 construct: also called hOLR1
# Assay: flow, Jurkat
row,binding result,Binder
1,no binding (tested: 100 nM),B1
2,no binding (tested: 100 nM),B2
3,no binding (tested: 100 nM),B3
4,no binding (tested: 100 nM),B4

# Molecular target: T7, Human Clec5A
# Assay: flow, Jurkat
row,binding result,Binder
1,no binding (tested: 100 nM),B1
2,no binding (tested: 100 nM),B2
3,no binding (tested: 100 nM),B3
4,no binding (tested: 100 nM),B4

# Molecular target: T12, Human Clec9A (human, UniProt Q6UXN8 1-241)
# T12 construct: also called hClec9A
# Assay: flow, Jurkat
# T12 sequence (Q6UXN8 whole entry): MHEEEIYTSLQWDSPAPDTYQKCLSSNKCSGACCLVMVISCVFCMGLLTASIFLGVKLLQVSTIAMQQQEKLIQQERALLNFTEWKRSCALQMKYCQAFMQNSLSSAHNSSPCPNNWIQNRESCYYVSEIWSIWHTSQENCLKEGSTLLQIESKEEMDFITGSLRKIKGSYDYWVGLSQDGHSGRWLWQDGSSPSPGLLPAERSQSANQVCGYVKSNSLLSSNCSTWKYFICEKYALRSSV
row,binding result,Binder
1,no binding (tested: 100 nM),B1
2,no binding (tested: 100 nM),B2
3,no binding (tested: 100 nM),B3
4,no binding (tested: 100 nM),B4

# Molecular target: T8, Human CD209
# Assay: flow, Jurkat
row,binding result,Binder
1,no binding (tested: 100 nM),B1
2,no binding (tested: 100 nM),B2
3,no binding (tested: 100 nM),B3
4,no binding (tested: 100 nM),B4

# Molecular target: T9, Human Clec4E
# Assay: flow, Jurkat
row,binding result,Binder
1,no binding (tested: 100 nM),B1
2,no binding (tested: 100 nM),B2
3,no binding (tested: 100 nM),B3
4,no binding (tested: 100 nM),B4

# Molecular target: T10, Human Clec10A
# Assay: flow, Jurkat
row,binding result,Binder
1,no binding (tested: 100 nM),B1
2,no binding (tested: 100 nM),B2
3,no binding (tested: 100 nM),B3
4,no binding (tested: 100 nM),B4
